Measured values from patent US20200190209A1 (BLACK BELT THERAPEUTICS, published 2020).
“And” between values parts separate entries of the source, which are not always exact repeats. Equal entries are not always repeated.

How the values were obtained:
[1] = biological target: T1, recombinant human CD38 his tagged (extracellular domain) (human, UniProt P28907 43-300); assay: SPR Biacore affinity, rhCD38-his
T1 construct: also called rhCD38; rhCD38-his; not shown: Histidine tag

[2] = biological target: T1, recombinant human CD38 his tagged …; assay: summary, human CD38 extracellular protein
[3] = biological target: T2, human CD38 (full length, on cells) (human, UniProt P28907 1-300); assay: cell-based or functional assay
[4] = biological target: T1, recombinant human CD38 his tagged …; assay: SPR Biacore 2000; IgG1 captured, rhCD38-his as analyte
Procedure: Anti-human antibody was initially immobilised across all flow cells in analysis buffer (pH 7.4, 10mM HEPES, 150mM NaCl, 3mM EDTA, 0.05% Tween 20) to an RU of between 12,000-14,000 over 10 minutes. […] Dissociation was performed in analysis buffer over 10 minutes. Regeneration steps between sample concentrations were performed in 3M MgCl₂, three times for 0.5 minutes. A flow rate of 25 μl/min was maintained throughout the process. Kinetics data were fit using a global fit on the analysis software provided by Biacore with reference subtraction.

[5] = biological target: T2, human CD38 (full length, on cells); assay: cell-based or functional assay; remark: listed apart in the source
[6] = biological target: T2, human CD38 (full length, on cells); assay: flow cytometry, binding to Daudi cells
[7] = biological target: T1, recombinant human CD38 his tagged …; assay: Octet BLI, affinity, monovalent human CD38-HIS; IgG1
[8] = biological target: T1, recombinant human CD38 his tagged …; assay: Octet BLI affinity, rhCD38; Octet value of Table 5 (variant comparison); Table 1A gives 3.38E-09 for IgG1

Kd [1]: 0.62 nM
Kd [2]: ~1 nM
ADCC EC50, Daudi target cells [3]: 11 ng/mL and 6.2 ng/mL
Kd [4]: 0.62 nM
ADCC target lysis EC50 [5]: 6.2 ng/mL
ADCC target lysis, max. % lysis [5]: 49%
EC50 [6]: 734 ng/mL
Max MFI [6]: 2510 MFI
Kd [7]: 3.38 nM
Kd [8]: 2.38 nM
B1: aCD38-b-329 (human IgG1) (antibody, V domains shown)
VH: QLQLQESGPGLVKPSETLSLTCTVSGGSISSSDYYWGWIRQPPGKGLEWIGSIYYSGSTYYNPSLKSRVTISVDTSKNQFSLKLSSVTAADTAVYYCARGQYSSGWYAYPFDMWGQGTMVTVSS
VL: EIVLTQSPGTLSLSPGERATLSCRASQSVRSSYLAWYQQKPGQAPRLLIYGASSRATGIPDRFSGSGSGTDFTLTISRLEPEDFAVYYCQQDGAVFTFGGGTKVEIK
notes: Human IgG1
